# Measurements from publication PMC6482197, “Inhibition of HtrA2 alleviated dextran sulfate sodium (DSS)-induced colitis by preventing necroptosis of intestinal epithelial cells” (Cell Death & Disease, 2019).
# Biological target: the molecule itself
# Assay: not stated; MLKL trimer formation in T/S-treated L929 cells, with or without UCF-101 (Supplementary Fig. 5)
protein,measurement,value
"MLKL (natural protein, mouse (endogenous in L929), UniProt Q9D2Y4 1-472, looked up, MLKL, endogenous in the mouse fibroblast line L929; The trimer is seen in the execution phase of necroptosis; also called mixed lineage kinase domain like pseudokinase; MLKL trimer; source: endogenous, L929 cells treated with TNF-α plus Smac mimetic (T/S)) MDKLGQIIKLGQLIYEQCEKMKYCRKQCQRLGNRVHGLLQPLQRLQAQGKKNLPDDITAALGRFDEVLKEANQQIEKFSKKSHIWKFVSVGNDKILFHEVNEKLRDVWEELLLLLQVYHWNTVSDVSQPASWQQEDRQDAEEDGNENMKVILMQLQISVEEINKTLKQCSLKPTQEIPQDLQIKEIPKEHLGPPWTKLKTSKMSTIYRGEYHRSPVTIKVFNNPQAESVGIVRFTFNDEIKTMKKFDSPNILRIFGICIDQTVKPPEFSIVMEYCELGTLRELLDREKDLTMSVRSLLVLRAARGLYRLHHSETLHRNISSSSFLVAGGYQVKLAGFELSKTQNSISRTAKSTKAERSSSTIYVSPERLKNPFCLYDIKAEIYSFGIVLWEIATGKIPFEGCDSKKIRELVAEDKKQEPVGQDCPELLREIINECRAHEPSQRPSVDGRSLSGRERILERLSAVEESTDKKV",stoichiometry N,3
